In brackets after ≈: the same amount, converted by molar mass. Read-outs that look alike come from different tables or passages of the source.
Assays:
[1] = test system: S. aureus ATCC 43300 MRSA; experiment: microbe, parasite or virus in culture; type: cell-based, Staphylococcus aureus
Method: (§1) The compounds, along with standard antibiotics were serially diluted twofold across the wells of 96-well non-binding surface (NBS) polystyrene plates (Corning 3641). […] Standards ranged from 64 to 0.03 µg mL^−1 and compounds from 8 to 0.003 µg mL^−1 with final assay volumes of 100 µL per well. Gram-positive bacteria were cultured in Mueller Hinton broth (MHB) (Bactolaboratories, Cat. no. 211443) at 37 °C overnight. A sample of each culture was then diluted 40-fold in fresh MHB and incubated at 37 °C for 2–3 h. The resultant mid-log phase cultures were added to the compound-containing 96-well plates to give a final cell density of 5 × 10^5 colony forming unit (CFU) mL^−1. All the plates were covered and incubated at 37 °C for 24 h. MICs were the lowest concentration showing no visible growth.

[2] = test system: Vancomycin-resistant (VanA) Enterococcus faecium ATCC 51559; experiment: microbe, parasite or virus in culture
In short: (§2)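 Each compound was serially diluted twofold in Mueller Hinton broth, spanning 8 to 0.003 µg mL^−1, and incubated with bacteria for 24 h at 37 °C before visual scoring of growth.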

[3] = test system: Vancomycin-intermediate S. aureus NRS1; experiment: microbe, parasite or virus in culture
In short: as §2

[4] = test system: Multi-drug-resistant S. pneumoniae ATCC 700677; experiment: microbe, parasite or virus in culture
In short: as §2

S. pneumoniae ATCC 33400 = experiment: microbe, parasite or virus in culture; type: cell-based, Streptococcus pneumoniae
Method: as §1

[5] = In vivo pharmacokinetics in mice; details: mouse; for level at […]: 0.250 h; for level at 0.5 h: 0.500 h; for MRT inf: read-out: MRT0-inf; for MRT last: read-out: MRT0-last
Method: Performed by WuXi AppTec (Shanghai) Co., Ltd. Seven to 9-week-old male CD1 mice (SLAC Laboratory Animal Co. Ltd., Shanghai, China) weighing 25–35 g were acclimated for approximate 3 days before being used in the study. Animals are group housed during acclimation and in-life study in compliance with the National Research Council 'Guide for the Care and Use of Laboratory Animals.' The animal room environment is controlled (target conditions: temperature 18 to 26 °C, relative humidity 30–70%, 12 h artificial light and 12 h dark) with temperature and relative humidity monitored daily. Animals were deprived of food for approximately 16 h before formulation administration then allowed access to Certified Rodent Diet (Catalogue # M-01F, Shanghai SLAC Laboratory Animal Co. Ltd.) ad libitum 4 h post dosing. Water was autoclaved before being provided to the animals ad libitum. Formulations of compounds were prepared on the morning of the dosing day. The formulation for the IV group was filtered with filter of 0.22 μm before being dosed to animals. After dose formulation preparation, duplicate 50 μL aliquots were removed from each dose formulation for use in dose validation. For each compound studied, three mice were dosed intravenously (IV) administered to each animal via tail vein per facility SOPs using test article formulated in deionised water at 1 mg mL^−1 with a dose volume of 2 mg mL^−1, providing a dose of 2 mg mL^−1 (based on free base concentration). An additional three mice were dosed subcutaneously (SC) administered to each animal via subcutaneous bolus on each animals’ back per facility SOPs using test article formulated in deionised water at 2 mg mL^−1 with a dose volume of 5 mg mL^−1, providing a dose of 10 mg mL^−1. All animals were killed at the last study time point (100% CO2 was introduced into the animal box).
Plasma samples were collected as the following target times after each dose administration: IV Sampling Time points (hours post dosing): 0, 0.083, 0.25, 0.5, 1, 2, 4, 8 and 24. SC Sampling Time points (hours post dosing): 0, 0.25, 0.5, 1, 2, 4, 8 and 24. Approximately 30 μL blood was obtained via submandibular or saphenous vein for the first several time points. For the last time point, samples were collected via cardiac puncture while the mouse was under anaesthesia. All blood samples were transferred into pre-chilled plastic microcentrifuge tubes containing 2 μL of ethylenediaminetetraacetic acid dipotassium salt (K2-EDTA) (0.5 M) as anticoagulant and placed on wet ice until centrifugation. Harvested blood samples were centrifuged within 30 min of collection at 7000 rpm (8546 × g) 4 °C for about 10 min. After centrifugation, plasma was transferred into another pre-labelled and pre-chilled polypropylene microcentrifuge tubes, then quick-frozen over dry ice and stored at −70 ± 10 °C until LC/MSMS analysis.
LC-MS/MS methods for the quantitative determination of the test article in mouse plasma were developed with an internal standard. Benchtop stability of the compound in mouse plasma was determined at mid QC concentrations in triplicate at 0, 2 h at room temperature. The stability was determined using mean peak area ratio of T2/T0 sample. If the mean peak area ratio is within 80%~120%, the test article in the plasma is considered stable for 2 h at room temperature. […] A set of QC samples consists of three concentration levels (low, middle and high). The sample analysis was performed concurrently with a set of calibration standards and two sets of QC samples using the LC-MS/MS method.
Plasma concentration vs. time data from individual animals was analysed by WinNonLin non-compartmental model (Phoenix WinNonlin 6.2.1, Pharsight, Mountain View, CA). Pharmacokinetic parameter C 0, T ½, CL, Vdss, C max, T max, AUC0-last, AUC0-inf, %F, MRT0-last, MRT0-inf and graphs of plasma concentration vs. time profile were derived.

Haemolysis assay = type: cell-based; details: human, whole blood
Method: Haemolytic activity was measured as previously described with slight modifications, [45]. Fresh human venal blood was collected from healthy volunteers and pretreated with the anticoagulant sodium citrate. Serial twofold dilutions of each antibiotic, dissolved in 0.9% NaCl solution, were added to fresh human whole blood (50% final, vol:vol) to the final volume of 80 μL and incubated at 37 °C for 3 h on a horizontal shaker at 200 rpm. For negative and positive controls, human whole blood in 0.9% NaCl solution (A blank) and in sdH2O (A water) were used, respectively. After incubation, both test and A blank were mixed with 1 mL 0.9% NaCl solution, or sdH2O for the complete […] A water. After centrifugation of samples at 2500 rpm (700 × g) for 5 min, the release of haemoglobin was monitored by measuring the absorbance (A sample) of the supernatant at 540 nm using BMG Labtech PolarStar Omega multimode reader. The percentage of haemolysis was calculated according to the equation: %haemolysis=Asample-Ablank∕Awater-Ablank×100

[6] = test system: Bacillus subtilis ATCC 6633; experiment: microbe, parasite or virus in culture; type: cell-based; details: ATCC 6633, 48 h
[7] = male, CD1, plasma, 2 mg/kg IV, read-out: Plasma concentration, Mean IV
[8] = male, CD1, plasma, 10 mg/kg SC, read-out: Plasma concentration, Mean SC

## CN[C@H]1C(=O)N[C@@H]2Cc3ccc(cc3)Oc3cc4cc(c3O[C@@H]3O[C@H](C(=O)O)[C@@H](O)[C@H](O)[C@H]3NC(=O)CCCCCCCCC(C)C)Oc3ccc(cc3Cl)[C@@H](O)[C@@H]3NC(=O)[C@H](NC(=O)[C@@H]4NC(=O)[C@@H](NC2=O)c2cc(cc(O)c2Cl)Oc2cc1ccc2O)c1ccc(O)c(c1)-c1c(O[C@H]2O[C@H](CO)[C@@H](O)[C@H](O)[C@@H]2O)cc(O)cc1[C@@H](C(=O)NCCCN(C)C)NC3=O [Compound 3, Dalbavancin]
[1]; 1% Survanta
  MIC S. aureus ATCC 43300 MRSA: 0.06 µg/mL (≈ 0.033 µM)
[1]; 5% Survanta
  MIC S. aureus ATCC 43300 MRSA: 0.125 µg/mL (≈ 0.0688 µM)
[2]; E. faecium MDR VanA ATCC 51559, substance alone
  MIC VRE: >8 µg/mL
[3]; S. aureus NRS1
  MIC VISA: 1 µg/mL (≈ 0.55 µM)
[4]; S. pneumoniae ATCC 700677
  MIC MDR S.P.: 0.09 µg/mL (≈ 0.0495 µM)
S. pneumoniae ATCC 33400; 1% Survanta
  MIC S. pneumoniae ATCC 33400: 0.06 µg/mL (≈ 0.033 µM)
S. pneumoniae ATCC 33400; 5% Survanta
  MIC S. pneumoniae ATCC 33400: 0.125 µg/mL (≈ 0.0688 µM)
S. pneumoniae ATCC 33400; no added Survanta
  MIC S. pneumoniae ATCC 33400: 0.06 µg/mL (≈ 0.033 µM)

## CN[C@H](CC(C)C)C(=O)N[C@H]1C(=O)N[C@@H](CC(N)=O)C(=O)N[C@H]2C(=O)N[C@H]3C(=O)N[C@H](C(=O)N[C@H](C(=O)O)c4cc(O)cc(O)c4-c4cc3ccc4O)[C@H](O[C@H]3C[C@](C)(N)[C@@H](O)[C@H](C)O3)c3ccc(c(Cl)c3)Oc3cc2cc(c3O[C@@H]2O[C@H](CO)[C@@H](O)[C@H](O)[C@H]2O[C@H]2C[C@](C)(NCc3ccc(-c4ccc(Cl)cc4)cc3)[C@@H](O)[C@H](C)O2)Oc2ccc(cc2Cl)[C@H]1O [Compound 5, Oritavancin, reference compound]
[2]; Enterococcus faecium, ATCC51559 / VRE, read-out: MIC VRE
  MIC: 0.125 µg/mL (≈ 0.0697 µM)
[3]; Staphylococcus aureus, NRS1 / VISA, read-out: MIC VISA
  MIC: 1 µg/mL (≈ 0.558 µM)
[4]; Streptococcus pneumoniae, ATCC700677, read-out: MIC MDR S.P.
  MIC: 0.06 µg/mL (≈ 0.0335 µM)

## CCCCCCCCCCC(=O)N[C@@H](CCCCN)C(=O)N[C@@H](CCCCN)C(=O)N[C@@H](CCCCNC(=O)[C@H]1NC(=O)[C@H]2NC(=O)[C@H](NC(=O)[C@@H]3NC(=O)[C@H](CC(N)=O)NC(=O)[C@H](NC(=O)[C@@H](CC(C)C)NC)[C@H](O)c4ccc(c(Cl)c4)Oc4cc3cc(c4O[C@@H]3O[C@H](CO)[C@@H](O)[C@H](O)[C@H]3O[C@H]3C[C@](C)(N)[C@H](O)[C@H](C)O3)Oc3ccc(cc3Cl)[C@H]2O)c2ccc(O)c(c2)-c2c(O)cc(O)cc21)C(=O)O [Compound 19, nC10CO-KK-K(Vancomycin)-OH]
[5]; male, CD1, plasma, 2 mg/kg IV, 5 min, n=3, read-out: Plasma concentration, Mean IV
  level at 5 min: 9370 ng/mL
[5]; [7]
  level at […]: 6970 ng/mL
  level at 0.5 h: 6060 ng/mL
  level at 1 h: 4860 ng/mL
  level at 2 h: 2640 ng/mL
  level at 4 h: 1450 ng/mL
  level at 8 h: 137 ng/mL
  level at 24 h: 5.7 ng/mL
[5]; male, CD1, plasma, 10 mg/kg SC, n=3, read-out: Plasma concentration, Mean SC
  level at […]: 2650 ng/mL
[5]; [8]
  level at 0.5 h: 5130 ng/mL
  level at 1 h: 8790 ng/mL
  level at 2 h: 9160 ng/mL
  level at 4 h: 7370 ng/mL
  level at 8 h: 2380 ng/mL
  level at 24 h: 124 ng/mL
[5]; IV 2 mg kg-1
  AUC0-inf/AUC0-last: 100%
  Tlast: 18.7 h
[5]; SC 10 mg kg-1
  AUC0-inf/AUC0-last: 101%
  Tlast: 24 h
[5]; plasma, subcutaneous, SC 10 mg kg-1 vs IV 2 mg kg-1
  bioavailability: 71.8%
[5]; plasma, IV 2 mg kg-1
  AUC(0-inf): 16900 ng·h/mL
  AUC(0-t): 16800 ng·h/mL
  C0: 10900 ng/mL
  clearance: 1.98 mL/min/kg
  half-life: 2.22 h
  MRT inf: 2.26 h
  MRT last: 2.2 h
[5]; plasma, IV 2 mg kg-1, read-out: Vdss
  Vd: 0.267 L/kg
[5]; plasma, SC 10 mg kg-1
  AUC(0-inf): 60500 ng·h/mL
  AUC(0-t): 59900 ng·h/mL
  Cmax: 9970 ng/mL
  Tmax: 1.67 h
  half-life: 3.49 h
  MRT inf: 5.59 h
  MRT last: 5.32 h
[2]; ATCC 51559
  MIC VRE: 6 µg/mL (≈ 3 µM)
[3]; Vancomycin-intermediate NRS1
  MIC VISA: 0.5 µg/mL (≈ 0.25 µM)
[4]; ATCC 700677
  MIC MDR S.P.: 0.06 µg/mL (≈ 0.03 µM)
Haemolysis assay; 100 µg mL-1
  hemolysis at 3 h: 0.7%
Haemolysis assay; 1600 µg mL-1
  hemolysis at 3 h: 0.5%
[6]
  Ac2Kaa concentration required to neutralise MIC activity: 100 µg/mL
  MIC: ≤ 0.004 µg/mL
